By Kd is commonly meant the free concentration of one partner at which half of the binding sites on the other are occupied at equilibrium, for simple one-to-one binding.

Assay [1] deals with PqqE (Methylorubrum extorquens) (UniProt B7KXC6). The note with it: cited from earlier work.
The target in assay [2] is PqqE in complex with PqqD (PqqDE) (Methylorubrum extorquens, UniProt P71517). Kind of assay: HDX-MS, PqqDES versus PqqDE. It counts as binding. The note with it: no PqqA, no reductant, site at RS Fe4S4 cluster (peptide 21-32).
PqqE in complex with PqqD (PqqDE), sequence (Q49150 279-372): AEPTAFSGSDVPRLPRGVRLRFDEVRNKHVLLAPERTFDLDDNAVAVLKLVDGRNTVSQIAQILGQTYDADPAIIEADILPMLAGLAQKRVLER
PqqE in complex with PqqD (PqqDE), sequence (P71517 whole entry): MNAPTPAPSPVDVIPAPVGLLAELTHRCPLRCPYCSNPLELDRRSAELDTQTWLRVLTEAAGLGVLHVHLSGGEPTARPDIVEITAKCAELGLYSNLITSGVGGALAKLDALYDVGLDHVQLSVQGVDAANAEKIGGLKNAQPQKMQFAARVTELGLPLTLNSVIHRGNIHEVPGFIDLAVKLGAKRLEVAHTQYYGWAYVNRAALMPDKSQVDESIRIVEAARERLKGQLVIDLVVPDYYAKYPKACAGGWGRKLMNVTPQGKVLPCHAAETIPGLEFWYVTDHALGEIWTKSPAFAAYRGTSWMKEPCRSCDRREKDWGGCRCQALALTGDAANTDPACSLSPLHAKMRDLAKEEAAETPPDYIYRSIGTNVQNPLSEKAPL
The target in assay [3] is PqqD (Methylorubrum extorquens) (UniProt Q49148). The settings on record: cited from earlier work.
PqqD (Methylorubrum extorquens), sequence (Q49148 whole entry): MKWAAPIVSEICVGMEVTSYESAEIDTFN

PqqE (Methylorubrum extorquens), sequence (B7KXC6 whole entry): as the sequence (P71517 whole entry) above, with A286S, K293Q counted along it

With PqqD (from UniProt Q49148), the Kd in assay [1] is 4.5 µM. As to `C[S+](CC[C@H](N)C(=O)O)C[C@H]1O[C@@H](n2cnc3c(N)ncnc32)[C@H](O)[C@@H]1O` (stereo partly drawn) [SAM, S-adenosylmethionine], the “HDX-MS, PqqDES versus PqqDE” value in assay [2] is listed as “When SAM was added to the PqqDE complex, we identified one type I peptide”. For PqqA (from UniProt Q49148), the Kd in assay [3] was 0.39 µM.

These data come from paper PMC10906245, “Hydrogen–Deuterium Exchange Mass Spectrometry Identifies Local and Long-Distance Interactions within the Multicomponent Radical SAM Enzyme, PqqE” (ACS Central Science, 2024).
